We go through 41 sequences from the nanobody polyreactivity screen of Harvey et al. (2022).

The nature of this series: yeast display, Sf9 membrane polyspecificity reagent, FACS + sequencing; frameworks hold sequencing errors. The gist of the method:
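Polyreactivity labels are assigned by the sorting gate from which each nanobody was recovered. The gates were low and high (top ~1%), set on anti-HA fluorescence for expression and streptavidin fluorescence for reagent binding. Before sorting, galactose-induced (36–48 hours) yeast display cells were stained for 1 hour at 4 °C with 10% biotinylated, detergent-solubilized Sf9 membrane reagent.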
For the sequence “QVQLVESGGGVVQAGGSLRFSCAASGRTFVVNAMGWYREAPGKERELVAAITRRGGITYYADSVKGRFTISRDNAKNSVYLQMNSLTPEDTAVYYCAADRSYYPDTRTTYGYNYWGQGTQVTVSS”, the “polyreactivity (PSR sort gate)” value is “low polyreactivity”.

Take “QVQLVESVGGLVQAGGSLRLSCAASGFTFYGYAMGWYRQAPGKERELVAAITSGGITNYADSVKGRFTISRDNAKNTVYLQMNSLKPEDTAVYYCNVKRRVSGYYGYKYYYWGQGTQVTVSS”: the “polyreactivity (PSR sort gate)” value is recorded as “high polyreactivity”.

In the case of “HVQLVESGGGLVQAGGSLRLSCAASGSIFDYNAIGWYRQAPGKERELVASSSGDSGSTYYADSVKWRFTISRDYAKNTVYLQMNSLKPEDTAVYYCAAPYVSWDYRYYYWGQGTQVTVSS”, the “polyreactivity (PSR sort gate)” value is reported as “low polyreactivity”.

“QVQLVESGVGLFQAGGSLRLSCAASGRIFTLYTMGWYRQAPGKEREFVAALSRTGGRTYYADSVKGRFTISRDNAKNTVYLQMNSLKPEDTAVYYCAARSQSYTTHRYYYWGQGSQVTVSS”: the “polyreactivity (PSR sort gate)” value is given as “high polyreactivity”.

Take “QVQLVESGGGLVQAGVSLRLSCAASGFIFRTYAMGWYRQAPGKEREVVAAITGRGGTTYYADSVKGRFTISRDNAKNTVYLQMNSLKPEDTAVYYCAARGRVSVNTQRYAAYNYLGQGTQVTVSS”: the “polyreactivity (PSR sort gate)” value is listed as “high polyreactivity”.

On to “QVQLVESGGGLVQAGGSLRLSCAASAFYTNAMGWYRQAPGKERELVAAITSDGDSTYYADSVKGRFTISRDNAKNTVYLQMNSLKPEDNAVYYCAADAVPTSVVDWGFYGMYWGQGTQVTVSS”, for which the “polyreactivity (PSR sort gate)” value is “low polyreactivity”.

Turning to “QVQLEDSGGGLVQAGGRLRLSCAASGSIFFSYAMGWYRQAPGTERELVAGINWSGGSTYADCVKGRFTISRDNAKNTVYLQMNSQKPEDTAVYYCAAKYYSERSRYHYWGLGTQVTVSS”, the “polyreactivity (PSR sort gate)” value is reported as “low polyreactivity”.

Consider “QVQLVESGGGLVQAGGSLRLSCAASGSIFNAYDMGWYRQAPGKERELVAGISSSDSTYYADSVKGRFTISRDNAKNTVYLQMNSLKPEDTAVYYCAADPVFAAAYIHLYGIYDSWGQGTQVTVSS”, for which the “polyreactivity (PSR sort gate)” value is listed as “low polyreactivity”.

In the case of “QDQLVESGGGLVQAGGSLRLSCAASGRIFPYYAMGRYRQAPGKERELVASISGSGGRTYYADSVKGRFTISRDNAKNTVSLQMNSLKPEDTAVYYCAAYWYKVPGKYGYWGQGTQVTVSS”, the “polyreactivity (PSR sort gate)” value was “high polyreactivity”.

On to “QVQLVESGGGLVQAGGSLRLICAATGSIFPVYAMVWSRQAPGKEREFVARIRFSGGRTYYADSVKGRYTISRDNAMNTVYLQMNSLKPEDTAVYYCAKDFRGYRWSYYWGQGTQVTVSS”, for which the “polyreactivity (PSR sort gate)” value is given as “high polyreactivity”.

“QVQLVESGGGIVQAGGSLRLSCAASGSTFVGNAMGWSRQAPGKERELVAAISRTGGSTYYADSVKGRFTISRDNEKNTVYLQMNSLIPEDSAVYYCNAYTRYSSRRGIGDSWGQGTQVTVSS”: the “polyreactivity (PSR sort gate)” value is listed as “high polyreactivity”.

As to “QVQLVESGGGLVQAGGSLRLSCAASGRIFGYYAMGWYRQAPGKERELVAAISWSGGSTFYADSVKGRFTISRDYAKNTVYLQMISLKPEDTAVYYCNKDHLVYPSEFYYWGQGTQVTVSS”, the “polyreactivity (PSR sort gate)” value is “low polyreactivity”.

For the sequence “QVQHVESGGGLVQAGGSLRLSCAASGRTSFNYTQGWYRQAPGKERELVAAITSGGDTYYADSVKGRFTISRDNAKNTVYLPMNSLKPEDTAVYYCAVDDLGSEYDYWGQGTQVTVSS”, the “polyreactivity (PSR sort gate)” value is given as “low polyreactivity”.

With “QVQLVESGGGLVQAGGSLRLSCSASGRTFRSYTMGWYRQAPGKERELVAAINRGDRTYADSVKGRFTISRDNAKNTVYLQMNSLKPEDTAVYYCNARYYTHRYDYWGQGTQVTVSS”, the “polyreactivity (PSR sort gate)” value was “high polyreactivity”.

As to “QVQLEESGGGLVQAGGSLRLSCAASGSTVWANAMGWYRPAPGKERELVAAITSTGITYYADSVKGRFTISRDNAKNTVYLQMNSLTPEDTAVYYCAASFPGAGYGMDYWGQGTQVTVSS”, the “polyreactivity (PSR sort gate)” value is recorded as “low polyreactivity”.

For “QVQLVESGGGLVQAGGSLRLSCAASGIIFPAYAMGWYRQARGKERELVAAITSRGGSTYYADSVKGRFTISRDNAKNTVYLQMNSLKPEDTAVYYCNAAALADYDYWGQGTQVTVSS”, the “polyreactivity (PSR sort gate)” value is listed as “low polyreactivity”.

As for “QVQLVESGGGLVQAGGSLRLSCAASGIIFASNAMGWYRQAPGKERELVAAISRSGGRTYYADSVKGRFTISRDNAKNTVYLQMNSLKPEDTAVYYCNAVQFGATAYDYWGQGTQVTVSS”, the “polyreactivity (PSR sort gate)” value was “high polyreactivity”.

In the case of “QVQLVESGGGLVQAGGSLRLSCAASGRTFYSYAMGWYRQAPGKERELVAAINSGGDTYYADSVKGRFTISRDNAKNSVYLQMNSLKAEDSAVYYCAADYYWEMDSWGQGTQVTVSS”, the “polyreactivity (PSR sort gate)” value is “low polyreactivity”.

As for “QVQLVESGGGLVQAGGSLRLSCAASGFTFSLYDMGWYRQAPGKERELVADINGSGGSTYYSDSVKGRFTISRDNAKYTVYFQMNSLKPEDTAVYYCAAGPPSRWWYFVDYGYWGQGTQVTVSS”, the “polyreactivity (PSR sort gate)” value is “high polyreactivity”.

In the case of “QVQLVESGGGLVQAGGSLRLSCAASGFTFRGYAMGWYRPAPGTERELVAAITKRGGSTYYADSVKGRFTISRDNAKNTVYLQMNSLKPEDTAVYYCAKTRRFGRYNAYWYRTYGYDYWGQGSQVTVSS”, the “polyreactivity (PSR sort gate)” value is “high polyreactivity”.

With “QVQLVESGGGLVQAGGSLRLSCAASGFTFTRYAMGWSRQAPGKETELVAAISSGSRTYYADSVKGRFTISRDNAKNTVYLQMNSLKPEDTAVYYCAAPVYTYYGHYDSWGQGTQVTVSS”, the “polyreactivity (PSR sort gate)” value was “high polyreactivity”.

With “QVQLVESGGGLVQAGGSLRLTCAASGRTFVENAMGWYRPATGKERELVAAITYSGGGTYYADSVKGRFTISRDNAKNTVYLQMNSVKPEDTAVYDCAATIPYSLDGYDYWGQGTQVTVSS”, the “polyreactivity (PSR sort gate)” value was “low polyreactivity”.

Regarding “QVQLVESGGGLVQAGGSLRLSCAASGLTFEWYAMGWYRQAPGKERELVAAISWNGGSTYYADSVKGRFTISRDNAKNTVYLQMNSLKPEDTAVYYCATSSPRRYYWGQGTLVTVSS”, the “polyreactivity (PSR sort gate)” value is “high polyreactivity”.

For the sequence “QVQLVESGGGLVQAGGSLRLSCAASGRTFVYYAMGWYRQAPGKERELVARISYSGGSTYYADSVKGRFTISRDNAKKTVYLQMNSLKPEDTAVYYCSQAGYSPVYGYWGQGTQVSVSS”, the “polyreactivity (PSR sort gate)” value is on record as “high polyreactivity”.

In the case of “QVQLVESGGGLVQAGGSLRLSCAASGLTSVRNAMGWYRQAPGKERELVAGISWSGGRTYYADSVKGRFTISRDNAKNTVYLQMNSLKPEDTAVYYCNKVRAYYTQEGSWGQGTQVTVSS”, the “polyreactivity (PSR sort gate)” value is listed as “high polyreactivity”.

In the case of “QVQLVESGGGLVQAGGSLRLSCAASGRIFVYNVMGWYRQAPGKERELVAAISWGTGSTYADSVKGRFTISRDNAKNTVYLQMNSLKPEDTAVYYCAADWLSTKNDYWGQGTQVTVSS”, the “polyreactivity (PSR sort gate)” value was “low polyreactivity”.

Take “QVQLVESGGGLVQAGGSLRLSCAASGFTIQRYAMGWYRQAPGKERELVAAITSGGSTYYADSVKGSFTISRDNAKNTVYFQMNSLKPEDTSVYYCATRAVWSSWGRRYDSWGQGTQVTVSS”: the “polyreactivity (PSR sort gate)” value is recorded as “high polyreactivity”.

Take “QVQLAESGGGLVQAGGSLRLSSAASGRTIGFNGMGWYRQAPGKERELVAAITWNGDSTYADSVKGRFTISRDNAKNTVYLQMNSLKPDDTAVYYCGAEVVAQMNYWGQGTQVTVSS”: the “polyreactivity (PSR sort gate)” value was “low polyreactivity”.

In the case of “QVHLVESGGGLVQAGGSLRLSCAASASTFLYYAMGWNRQPPGKERELVAVISWSGVSTYYADSVKGRFTSSRDNAKYTVYLQMNSLKPEDTAVYYCNTGNHYIRTYGYWGQGTQVTVSS”, the “polyreactivity (PSR sort gate)” value was “low polyreactivity”.

“QVQLVDSGGGLVQAGGILRLSCAASGSTFRRYSMGWYRHAPGKQRELVAAISGRGGSTSYADSVKGRFTISRDNAKNTVYLQINSLKPEDTAVYYCAADDKYFYPGNGYWGQGTQVTVSS”: the “polyreactivity (PSR sort gate)” value is recorded as “high polyreactivity”.

Turning to “QVQLVESGGGLVQAGGSLRLSCAASGRIFGGYTMGWYRQAPGKEREFVAAITSSGGSTYYADSVKGRFTISRDNAKNTVYLQMNSLKPEDTAVYYCAVDDYYYDYDYWGQGTQVTVSS”, the “polyreactivity (PSR sort gate)” value is reported as “low polyreactivity”.

For “QDQLVESGGGLVQAGGSLRLSCAASGSIFYPYAMGWYRQATGKEREFVAGITTRGGSTYYADSVKGRFTISRDNAKNTVYLQMNSLKPVDTAVYYCNAGYYLTLDYWGQGTQVTVSS”, the “polyreactivity (PSR sort gate)” value was “high polyreactivity”.

Regarding “QVQLVESGGRLVQAGGSLRLSCAASGSTFGRYVMGWYRQTPGKERELVAAISYSGGRTYYADSVKLRFTISRDNAKNTVYLQMNSLNPEDTAVFYCATRVTLTRWLYDYWGQGSQVTVSS”, the “polyreactivity (PSR sort gate)” value is “high polyreactivity”.

Consider “QVQLVESGGGLVQAGGSLRLSCAASGRTFHRYAMGWYRQAPVKEREVLAAITSSGGSTNYADSVKVRFTISRDNAKNTVYVQMNSLQPEDTAVYYCATDRYRYTSHPWSRGFDYWGQGTQVTVSS”, for which the “polyreactivity (PSR sort gate)” value is “low polyreactivity”.

Turning to “QVQLVESGGGLVQAGGSLRLSCAASRSTIPSYAMGWSRQAPGKERELVASITYSDGTTRYADSVKGRFTISRDNAKNTVYLQMNSLKPEDTAVYYCNAVYYRDGMDYWGQGTQVTVSS”, the “polyreactivity (PSR sort gate)” value was “low polyreactivity”.

In the case of “QVQLVESGGCLVQAGGSLRLSCAASGLTFAENAMGWYREAPGKERELVAAISASGGSTYYADSVKGRFTSSRDNAKNTVYLQMNSLKPEDTAVYYCATRVAFLWPRRDYDYWGQGTQVNVSS”, the “polyreactivity (PSR sort gate)” value is reported as “low polyreactivity”.

As for “QVQLVESGGGLVQAGCRLRLSCAASGLIFGYYHMGWYRQAPGKERELVAAITTGDSTYYADSVKGRFTISRDNAKNTVYLQMNSLKPEDTAVYYCAAYPVWYYEYDYWGQGTQVTVSS”, the “polyreactivity (PSR sort gate)” value is “low polyreactivity”.

Take “QVQLVESGGGLVQAGGSLRLSCAASGSIFSSYAMGWYRQAPGKERELVASISWRSGSTYYADSVKGRFTISRDNAKNTVYLQMNSLKPEDTAVYYCATAYYRYYKYRFYYWGQGTQVTVSS”: the “polyreactivity (PSR sort gate)” value is “high polyreactivity”.

In the case of “QVQLVESVGGLVQAGGSLRLSCAASGFTFVSNAMGWDRQEPGKERELVAAISTGGRTYYADSVKGRFTISRDNAKNTVYLQMNSLKTEDTAFYYCNARYGLRYVRYGEMDYWGQGTQVTVSS”, the “polyreactivity (PSR sort gate)” value is given as “high polyreactivity”.

In the case of “QVQLVESGGGLVQAGGSLRLSCASSGSTFSPNAMGWYRQAPGKERELVAAITYRGANTYYADSVKGRFTISRDNAKNTVYLQMNSLKPEDTAVYYCAAEYAYHHVGFGYWGQGTQVTVSS”, the “polyreactivity (PSR sort gate)” value is listed as “low polyreactivity”.

Take “QVQLEESGVGLVQAGGSLRLSCAASGSIFPAYAMGSYRQAPGKERELLAAITFSGGRTYYADSVKGRLTISRDNAKNTFYLQMNSLKPEDTAVYYCAAYGAPSGTGAKYGYWGQGTQVTVSS”: the “polyreactivity (PSR sort gate)” value is “low polyreactivity”.
